The results in this text go back to the DeepSol protein solubility set.

A short description of the data set: soluble on expression in E. coli; label from the status in PepcDB or PDB records.
As to “MRDNPLVSILIPTFNRPMLLEKSLRSAVNQTYKNIEIVICDDSTNYDSKTVVESYMKRYKNIRYYFNNGPLGNFGLNNVKKCYELSKGEYINYLNDDDMFHKSKIMRMIRYFQNYKKITLVTSHRSVIDKNDNILPDINATKRIRYLNRPVSGRIIAKLMFNLGNFIGEPTTVLFKKSDVKNFGSLNGKQYYSLIDAATWFELLSKGYCVYIADTLSYFRIHEGQNTNRPEVSGRFLLEWKDLNDYGYRKKIIDSEFYKRFLLSFKKEYEKPKLEHHHHHH”, the “soluble on expression in E. coli” value is recorded as “not soluble”.
For “MRDSIMQMCELCGKLTDKLYKVIIEGSEMNVCKECAKFGKSPKTYSRLGKKTIIGKGTITTNKQVKKPIKRRRDIFDTLPMLREDYGDVIREAREKRGLSIEELAKKLKMKASTLQKFERYELEPNEKEIKILEKELKISLTESIGEETSYYGGRDEDGFTLGDFIKIKK” the value was “not soluble”; for “MRDTLVLNASFEPLSTVTLNRAVILVLQDKAVVEQAHPELRMRGAALDIPVPRVIRLCRYVRVPFRRQAPWSRRGVLVRDRHRCAYCGRRATTVDHVVPRAQGGQDSWLNTVASCAEDNHRKAARTPEQAGMPLLRQPFEPTPADAMLLALGQDDFESLPEWLAQPAALEHHHHHH”, “not soluble”.
For the sequence “MRDTRGGDQGGGLEAQGGAEARNALPPETIVLILPWEPGSRRQPLKAGQVILKWGGYTMPYLVGPKGQVVIAKEIRERLGIRPGWRVIQRLVDDHVELYFLPPPHKASLKGLLRDKIRGTVSEEAWAEARERAWRASWSEEGEG”, the “soluble on expression in E. coli” value is “soluble”.
Turning to “MREFSRPKVVISRCLEFDHCRYNGDMISSPVVVKLKKHVDFLPVCPEVEIGLGVPRNPVRIVLDKGDHRLVQPSSGKDVTEDMKSFCSNFLDSIYEVDGFILKFRSPSCGLKDVKVYPSAGSHGGAVEKISGYFGGAVLGRYPFHPVEDEGRLRNARIKEHFLTKLFTFAAFRKVKSEGSIKDLINFHAQNKFLLMAYNQAELQKLGEIAANREKRPWKELISDYENHLYSALSRAPRYTSTINVLMHALGFFSDQLSSREKALFFDWVQKYREGRASVCPAINMIRSWIVRFEDGYLMSQTFFEPYPEDLIEINPVESHLREDLWK”, the “soluble on expression in E. coli” value is reported as “not soluble”.
Regarding “MREKIDALTQNLNRTIVGKTEAIRLVLVALIGGGHALLEDVPGVGKTLLAKSLARSLDGTFQRLQCTPDLLPTDITGTNIWNPKSGEFSFMPGPVFANVVLADEINRATPRTQSALLEVMEEQQVTVDGVSRTVPHPFFVIATQNPVEYQGTFPLPEAQMDRFMLSLSLGYPGVDEELEMLQNLQHGIKVGDLQPCLTLAEVAELRDICSQVKVETVLQQYILELVRATRQDEEITLGVSPRGTVALHKATQALAFLLGRDYAIPDDVKFLAPHVLCHRLIPRGGRSARSIVDRLLRSLPIPLEHHHHHH”, the “soluble on expression in E. coli” value is “soluble”.
Turning to “MREQISVLTQNLSQTIVGKDEAIRLVLVALLSGGHALLEDVPGVGKTLLAKSLARSINGKFQRVQCTPDLLPTDITGTNIWNPSSREFEFLPGPAFANILLADEINRATPRTQAALLEVMEEKQVTVDGETRLVPHPFFVIATQNPIEYQGTFPLPEAQLDRFALSLSLGYPSEAEELKMLQRQQNPEAIAVGDLESCISLEEVEALQKAVRQVKLTEDLQQYLLRLVRASRTDEDVTLGVSPRGTTALQRATQAFAFLEERDYAIDDDVKFVAPHVLAHRLIPASGKDPKAILQRLLDSVPILEHHHHHH”, the “soluble on expression in E. coli” value is “not soluble”.
As for “MRERRYSSTSPERLAAALFDVAAESGLEGASVREVAKRAGVSIGAVQHHFSTKDEMFAFALRTLVDKLLARLSEVERGGDPARALFAAMSQLLPLDEARSREAHVMAAFAVRAATSPSLAEIRRKTLFTIRTGLSAVLIGIGTPEAETRAALLLATVDGLALDAIGSPALYPPEYLEHALDIQIGMILQGADVVPSSSIELAS”, the “soluble on expression in E. coli” value is “soluble”.
As to “MRGFLFSMAQHFSLSAEARHLSIQVDELSDVEILSLLKTARWGNADNINDIECPHCHVRHEAYFIKTRQQWQCKHCCYRFSITAGTIFHLAKLSLRKILKALRYFALKSKGLSAIELSHEINVQYKTAWGLRHKFREALDKTKDLTPLKDEVHIDGAYTNYYIRPKNFRHKRIDRRKKRYQREDKSCVLVFRQRAANQAQMKGADRSIVALIKEENTQDVLDLTQRLVKQGSTIHTDENPAYDSLQFLYDLWRVNHSQEYCSIEGITNNLAESFFARFRRMIIGVHHKMANRYMLYYANEIAWREDNRLKTDREKLNDVLQRCIKTKPSRHFTGYWQGSKKSPETFGLESINASNDSHYLIAALEHHHHHH”, the “soluble on expression in E. coli” value is “not soluble”.
Consider “MRGKAWMLTAVALTGLGLAQIRADGSSTVYPITQAVAEEFVTRNPQVRISVAFSGTGAGFQKFCRGETDVQNASRPIRKSELEACQKAGIQFIEIPVAYDALSILVNRQNTWAQCLTTAQLKSIWEPNAKVNYWKDLNPAWPNRRIVLFGAGTDSGTFDYFTEAIMGRAGSIRKDYFPSEDDNVIMRGVTGNPYAMAFVGFAYYEENKDKVKAVAIDHGKGCVLPSRETVLDGTYQPLSRPLFIYVNVKSLDRPEVQAFVDFYLSPAARRAIRSTGYVELPDEAYRIGQGLVARKKTGSFFTDLPPGTPLAKFIEELRKEVQ”, for which the “soluble on expression in E. coli” value is “soluble”.
“MRGSHHHHHHGSACMKRQGASSERKRARIPSGKAGAANGFLMEVCVDSVESAVNAERGGADRIELCSGLSEGGTTPSMGVLQVVKQSVQIPVFVMIRPRGGDFLYSDREIEVMKADIRLAKLYGADGLVFGALTEDGHIDKELCMSLMAICRPLPVTFHRAFDMVHDPMAALETLLTLGFERVLTSGCDSSALEGLPLIKRLIEQAKGRIVVMPGGGITDRNLQRILEGSGATEFHCSARSTRDSGMKFRNSSVAMGASLSCSEYSLKVTDVTKVRTLNAIAKNILV”: the “soluble on expression in E. coli” value is recorded as “soluble”.
For “MRGSHHHHHHGSMAEKNYVMAIDQGTTSSRAIIFDRNGKKIGSSQKEFPQYFPKSGWVEHNANEIWNSVQSVIAGAFIESGIRPEAIAGIGITNQRETTVVWDKTTGQPIANAIVWQSRQSSPIADQLKVDGHTEMIHEKTGLVIDAYFSATKVRWLLDNIEGAQEKADNGELLFGTIDSWLVWKLTDGQVHVTDYSNASRTMLYNIHKLEWDQEILDLLNIPSSMLPEVKSNSEVYGHTRSYRFYGSEVPIAGMAGDQQAALFGQMAFEKGMIKNTYGTGAFIVMNTGEEPQLSDNDLLTTIGYGINGKVYYALEGSIFVAGSAIQWLRDGLRMIETSPQSEELAAKAKGDNEVYVVPAFTGLGAPYWDSEARGAVFGLTRGTTKEDFVRATLQAVAYQSKDVIDTMKKDSGIDIPLLKVDGGAAKNDLLMQFQADILDIDVQRAANLETTALGAAYLAGLAVGFWKDLDELKSMAEEGQMFTPEMPAEERDNLYEGWKQAVAATQTFKFKAKKEGE”, the “soluble on expression in E. coli” value is “soluble”.
Regarding “MRGSHHHHHHTDPALRAASTFTSDTLPADHKAAIRQMKHALRAQLGDVQQIFNQLSDDIATRVAEINALKAQGDAVWPVLSYADIKAGHVTAEQREQIKRRGCAVIKGHFPREQALGWDQSMLDYLDRNRFDEVYKGPGDNFFGTLSASRPEIYPIYWSQAQMQARQSEEMANAQSFLNRLWTFESDGKQWFNPDVSVIYPDRIRRRPPGTTSKGLGAHTDSGALERWLLPAYQRVFANVFNGNLAQYDPWHAAHRTEVEEYTVDNTTKCSVFRTFQGWTALSDMLPGQGLLHVVPIPEAMAYVLLRPLLDDVPEDELCGVAPGRVLPVSEQWHPLLIEALTSIPKLEAGDSVWWHCDVIHSVAPVENQQGWGNVMYIPAAPMCEKNLAYAHKVKAALEKGASPGDFPREDYETNWEGRFTLADLNIHGKRALGMDVGLCGR”, the “soluble on expression in E. coli” value is “soluble”.
Take “MRHHTIHPQLEQVFSAPYLRQLQKVTFQKGNYIGTQGQDITELTYILSGRVKIVRSLSNGKEHILQMPQQPQLLGDVELMTNQLAGSSVIALEEVQAAQLPLNNKEALLKDPIFLYHIGRNLAMALHRQGITASTNASYFVKERLATHILNIEEQDIFQLSPSILSSSFGTSYRHVQRVIKQFIDQGIIEKKAFKTYRILQRDSLETLAFID”: the “soluble on expression in E. coli” value is “not soluble”.
Turning to “MRIEVVNVSHIFHRGTPLEKKALENVSLVINEGECLLVAGNTGSGKSTLLQIVAGLIEPTSGDVLYDGERKKGYEIRRNIGIAFQYPEDQFFAERVFDEVAFAVKNFYPDRDPVPLVKKAMEFVGLDFDSFKDRVPFFLSGGEKRRVAIASVIVHEPDILILDEPLVGLDREGKTDLLRIVEKWKTLGKTVILISHDIETVINHVDRVVVLEKGKKVFDGTRMEFLEKYDPRFFTSKMLVMRRLVLKGEDPFSMSDDELLERVCNS”, the “soluble on expression in E. coli” value was “soluble”.
For “MRIGELSKETGVSERSLRHYEEKGLLPSKRLANGYRDFDESAIEKVELIQMYLQIGLNLEETARMLRCLEIEPHLYDNPCSSILTLYEDKLNEVTKQITLLSNIQANLQKHVSLLKQAKEKE” the value was “not soluble”.
Then “MRIKKKNTRGNARNFITRSQAVRKLQVSLADFRRLCIFKGIYPREPRNKKKANKGSTAPTTFYYAKDIQYLMHEPVLAKFREHKTFARKLTRALGRGEVSSAKRLEENRDSYTLDHIIKERYPSFPDAIRDIDDALNMLFLFSNLPSTNQVSSKIINDAQKICNQWLAYVAKERLVRKVFVSIKGVYYQANIKGEEVRWLVPFKFPENIPSDVDFRIMLTFLEFYSTLLHFVLYKLYTDSGLIYPPKLDLKKDKIISGLSSYILESRQEDSLLKLDPTEIEEDVKVESLDASTLKSALNADEANTDETEKEEEQEKKQEKEQEKEQNEETELDTFEDNNKNKGDILIQPSKYDSPVASLFSAFVFYVSREVPIDILEFLILSCGGNVISEAAMDQIENKKDIDMSKVTHQIVDRPVLKNKVAGRTYIQPQWIFDCINKGELVPANKYLPGEALPPHLSPWGDAIGYDPTAPVEEGEEEESESESESEDQVEEEDQEVVAGEEDDDDDEELQAQKELELEAQGIKYSETSEADKDVNKSKNKKRKVDEEEEEKKLKMIMMSNKQKKLYKKMKYSNAKKEEQAENLKKKKKQIAKQKAKLNKLDSKK”, with “soluble”; and “MRITVLILSTLLVTILNGLPIVPVVEDSISPEEVPEPSPEIEENTVPPPRVISPRVDVSVDVNEDGVLDIDEIRYAAFVHHGLSASVVEDLFKQVDTNRDNVLDAREFDAIRMLVLEKAENAALRYLQNVDTDRDGLLSLQEAQIYLLREYGIGYHDVARLWKLVPADLSDRMNSTLFSKLRRRVRGMTIRLARQIMKNADLNGDGHISVDEAQAIAFEQEGIGAGDVASMVGSVDENMDGELNAPEFADFERIIRARAIENSKKAMRVVDADNSGTLTLDEAKRVAFEHYGFDEATLAPFFGQADENEDGQLDNVEFAGFRSVIRARSVRDAMDKMKRIDTNGDGLVSNAEATDSTKKEDDMDSEETLALFNIADQNKSGKLDKVELADFNRLVRLSSIKFATDHFKEFDLDGNDAVTFDEIALLIEQKYGIPRSMIKTFFDRIDVDGSGDLMPAEIVDFRHLIRNHVSQQRQEKVYFLTL”, with “not soluble”.
For “MRIVEVYSHLNGLEYIQVHLPHIWEEIQEIIVSIDAEACRTKESKEKTKQGQILYSPVALNEAFKEKLEAKGWKESRTNYYVTADPKLIRETLSLEPEEQKKVIEAAGKEALKSYNQTDFVKDRVAIEVQFGKYSFVAYDLFVKHMAFYVSDKIDVGVEILPMKELSKEMSSGISYYEGELYNVIRQGRGVPAVPLVLIGIAP”, the “soluble on expression in E. coli” value is “soluble”.
For “MRKAAALSLLVLVILSTTLAGCNFGKGSNEEDSKGTNLKLPCSIVSTISGEDVLYYEIEGDSLKKLDLDLKGHMEVYSEELGLAVYREFADKGTNLIITNGVKEHKISVEGNIEELIISPKGTKLLYRYNSGDKIGYKVLDLQNFKEFDFNENLAISGENVKFVNEDQLILYGVDLEKRQSGLYIYNIKDGSYTLEKQIVKAFIDYIDLVEDQVVLYTQSSIDGKKNCYIYNLDSKKESVISNEVGEIESLCKIGNVVYFIGTKGEGLRSLYSIDITNNKLDRLVYDFPKNISEKSKLIVVGDNIYFLGFNDSKEKNALYRYNLKDKSIKLIDSNKGQYIIIKMAGDPLEHHHHHH” the value was “not soluble”.
